# Reference: the DeepSol protein solubility set
# Experiment: soluble on expression in E. coli; label from the status in PepcDB or PDB records
row,Sequence,soluble on expression in E. coli
1,MGHHHHHHSHMQENQQITKKEQYNLNKLQKRLRRNVGEAIADFNMIEEGDRIMVCLSGGKDSYTMLEILRNLQQSAPINFSLVAVNLDQKQPGFPEHVLPEYLEKLGVEYKIVEENTYGIVKEKIPEGKTTCSLCSRLRRGILYRTATELGATKIALGHHRDDILQTLFLNMFYGGKMKGMPPKLMSDDGKHIVIRPLAYCREKDIQRFADAKAFPIIPCNLCGSQPNLQRQVIADMLRDWDKRYPGRIETMFSAMQNVVPSHLCDTNLFDFKGITHGSEVVNGGDLAFDREEIPLQPACWQPEEDENQLDELRLNVVEVK,soluble
2,RPNVERDAQRRVNIRVTDEIVTALNERRIVMAFEPVVQAVSRAPAFHECLVRMKQDDGELLLAPDIVPVAEKLGLIRLVDHRVLELVVAELAAAPGVELSLNISPDTTMDADWWASIESLLGANPGVAERLIVEITETVAIQDLDDVRGFVNRLKNFGARIAIDDFGAGYTSFRNLRNLGVDIVKIDGAFVQNIARSADDRAFVQTLIDLARRLEIKTVAEWVQDEASAIMLRDWGCDYIQGRLIGLA,not soluble
3,EGFYRHQTQSFSFMVNNVQVVFPSSTSKPWQGLASRRQIDIPQEKVDMIKQSGFVQQASSVYAKWDANITNLKGQNLSSTVSGIDTSYFPLIQRKLQSGSRNLSPSDMKNHTRVAVLGDQIAQMGGIQIGDRLKVNGIPFLVIGITVGEDTGISFGDSRTVFIPQTTYRDLWDAKPWMVLMKPRDGMDAPSFRQNIVNFFAKQLHFDPSDKDAVELPDFSEGAAVISGILRGIQI,not soluble
4,MITFIGHVSKDVNVVDGKREIAYGGGVVMGAITSSLLGVKTKVITKCTREDVSKFSFLRDNGVEVVFLKSPRTTSIENRYGSDPDTRESFLISAADPFTESDLAFIEGEAVHINPLWYGEFPEDLIPVLRRKVMFLSADAQGFVRVPENEKLVYRDWEMKEKYLKYLDLFKVDSREAETLTGTNDLRESCRIIRSFGAKIILATHASGVIVFDGNFYEASFRSWSLEGRTGRGDTCTAAFLVGFVFKKMSIEKATKFAAAVTSVKMRHPGPLRREDLEAISGDQYF,not soluble
5,MHRIMLSGYLKALVDAGILKERRIKPVTLYSVLRRQDMNIYELTGNAIRSSGSKMDGDTALRLLYAILRRPVFLTEVERCGTKKPLNFETIIWERRKDLIRKLAESGIIIPETDMLVVPKDATADNTIDLISTLLGQVIDLKKYTIPEAEKKQKTLDF,not soluble
6,MSDFEETIRRLQSEKGVVGIIVVDSAGRVIHSTIDSDATQSHTAFLQQLCEKTKTSIRELDSSNDLTFLRLRTKKNEIMIAPDKDHVIMVIKDLS,not soluble
7,MSLNEESFEEFSMVLEDDLVGGTFSKVGEHNKRENEDFYITKDILDLNNVSESQGLCFYSGIFDGHGGSNCARYVMNHLKTNVIAKFRQSFLITCKKKFKEKGSKLNELSVELRALYDSCIKGFDMTDKNYIELSKKYNYKDGSTACIVLIYGPDDDGSLKVLCANCGDSGAFICHNKKPIKLSLRHKPDLQEERIRILKCGGIIANINGINRIITKHKDRNNLNENNNNKSKEKTFLALSTSRSFGDISYKIPRKIVQCKPFISVYTIDFDLDSFLVLATDGILNVLSDEEIIDIIWKNIHRKPEQAAEEVVNEATRRGSTDDKTCTVIFFYWRKEGHHHHHH,soluble
